Assay results taken from patent publication US20240043558A1 (SHANGHAI HENLIUS BIOTECH, published 2024).

B1: 1B01 llama-human chimeric bivalent VHH-Fc (Fc fusion)
chain: QVQLQESGGGLVQAGGSLRLSCAAVGLPFSNYAMGWFRQAPGEEREFVSAVSANGGNEYYADSVKDRFTISRDNAKNTVYLRMLSLKLEDTAIYYCATVRRRGGTFTVGSYRGQGTQVTVSS
notes: expressed in ExpiCHO; also called Clone 1B01; 1B01 llama VHH fused to human IgG1 Fc; not shown: human IgG1 Fc fused to the C-terminal of the VHH

What was measured:
[1] = target: GPC3 expressed endogenously on HepG2 and Hep3B human hepatoma cells (human) (UniProt P51654); test: flow cytometry on HepG2 cells (endogenous GPC3), MFI
GPC3 expressed endogenously on HepG2 and Hep3B human hepatoma cells (human), sequence (P51654 other isoform, or with tags, fused parts or gaps limits assumed, form in doubt): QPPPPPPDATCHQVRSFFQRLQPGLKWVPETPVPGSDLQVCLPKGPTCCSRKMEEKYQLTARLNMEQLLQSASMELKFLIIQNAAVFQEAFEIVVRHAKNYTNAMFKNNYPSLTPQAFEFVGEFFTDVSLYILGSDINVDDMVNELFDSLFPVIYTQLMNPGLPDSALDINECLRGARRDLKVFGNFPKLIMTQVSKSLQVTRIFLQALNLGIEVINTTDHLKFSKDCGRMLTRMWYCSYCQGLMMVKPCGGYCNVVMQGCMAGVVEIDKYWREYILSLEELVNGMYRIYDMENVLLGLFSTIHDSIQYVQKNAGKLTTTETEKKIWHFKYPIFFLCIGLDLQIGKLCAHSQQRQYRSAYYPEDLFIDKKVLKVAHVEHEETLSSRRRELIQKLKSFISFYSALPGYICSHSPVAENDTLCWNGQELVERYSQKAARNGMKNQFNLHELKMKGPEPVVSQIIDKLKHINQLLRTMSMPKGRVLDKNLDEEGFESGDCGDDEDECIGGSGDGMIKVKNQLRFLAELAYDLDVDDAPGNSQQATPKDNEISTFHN

[2] = target: recombinant human GPC3 protein (human) (UniProt P51654); test: ELISA on plate-coated human GPC3, OD 450 nm
recombinant human GPC3 protein (human), sequence (P51654 other isoform, or with tags, fused parts or gaps limits assumed, form in doubt): as above

[3] = target: GPC3 expressed endogenously on HepG2 and Hep3B human hepatoma cells (human) (UniProt P51654); test: flow cytometry on Hep3B cells (endogenous GPC3), MFI
[4] = target: T1, GPC3 expressed endogenously on HepG2 and Hep3B human hepatoma cells (human, UniProt P51654 25-554); test: flow cytometry on HepG2 cells (endogenous GPC3), MFI
T1 construct: Endogenous GPC3 of human hepatoma lines; also called HepG2 cells; Hep3B cells
T1 sequence (P51654 other isoform, or with tags, fused parts or gaps limits assumed, form in doubt): as above

Molecule | EC50 (read off the curve) [1] [nM] | EC50 (read off the curve) [2] [µg/mL] | EC50 (read off the curve) [3] [nM] | EC50 (read off the curve) [4] [nM]
HN3 VHH-Fc (Fc fusion) | 2 | 0.02 | 2 | –
B1 | – | – | – | ~0.3
